Results reported in patent US20050123977A1, “Assay and treatment” (Ludwig Institute for Cancer Research, priority 2003, published 2005).

How the values were obtained:
p53Pro72 and p53Arg72 = settings: RKO cells heterozygous for p53Pro72/p53Arg72
Experimental: For western blotting, cells were lysed in either NP40 lysis buffer or luciferase reporter lysis buffer. Between 15-100 μg of protein extract was loaded on SDS-PAGE gels. For immunoprecipitation, cells were lysed in NP40 lysis buffer and pre-cleared with protein G beads for 1 hour at 4° C. The protein concentration was determined and then 1-2 mg of the extract was incubated with antibody pre-bound to protein G beads for 4 hours or overnight at 4° C. The beads were washed twice in NP40 lysis buffer and twice in NET buffer. The IP beads were mixed with 5× sample buffer and loaded onto an SDS-PAGE gel. The gels were wet transferred on to Protran nitrocellulose membrane and the resulting blots were first incubated with primary antibody and subsequently with the appropriate secondary HRP conjugated antibody (Dako). The blot was exposed to hyperfilm following the use of ECL substrate solution (Amersham Life Science).
p53Pro72, p53Arg72, ASPP1, ASPP2 and iASPP were in vitro translated and labelled with ^35S -Methionine using the TNT T7 Quick coupled Transcription/Translation System (Promega). The lysates containing indicated proteins were incubated at 30° C. for 1 hour. The anti-ASPP1, ASPP2 or iASPP antibodies immobilised on protein G agarose beads were added to the binding reactions and incubated on a rotating wheel at 4° C. for 16 hours. The beads were then washed with PBS. The bound proteins were released in SDS gel sample buffer and analysed by 10% SDS-polyacrylamide gel electrophoresis (PAGE). Results were visualised using autoradiography for ^35S -Methionine labelled proteins. For immunoprecipitation using cell lysates, the expression of endogenous ASPP1, ASPP2, iASPP, p53Pro72 and p53Arg72 were detected by western blot using antibodies specific to these proteins derived from different species from that used in IP.

p53Arg72 = biological target: T1, p53Arg72 (Homo sapiens, UniProt P04637, P72R); assay: Transactivation assay (luciferase reporter), p53Arg72; assay type: cell-based; settings: Saos-2 cells, Bax promoter, co-transfection
T1 construct: expressed in transfected cells; host or cells: Saos-2 or H1299 cells
Experimental: (§1) Saos-2 or H1299 cells (5×10^5) were plated 24 hours prior to transfection in 6 cm dishes. All transactivation assays contained 1 μg of reporter plasmid. 50 ng of p53Pro72 or p53Arg72, 4 μg of ASPP1 or ASPP2, 2 μg of iASPP expression plasmids were used as indicated. In FIG. 4C cells were also co-transfected with 3 μg of pSuper plasmid containing iASPP RNAi as indicated. Cells were lysed in Reporter Lysis Buffer 16-24 hours after transfection and assayed using the Luciferase Assay kit (Promega, Wis., USA). The fold activation of a particular reporter was determined by the activity of the transfected plasmid divided by the activity of vector alone.

p53Pro72 [1] = biological target: T2, p53Pro72 (Homo sapiens, UniProt P04637); assay: Transactivation assay (luciferase reporter), p53Pro72; assay type: cell-based; settings: Saos-2 cells; for transcriptional activity of p53Pro72 on Bax promoter: co-transfection
T2 construct: expressed in transfected cells; host or cells: Saos-2 or H1299 cells
Experimental: as §1

p53Pro72 [2] = biological target: T2, p53Pro72; assay: Flow cytometry apoptosis assay, p53Pro72; assay type: cell-based
Experimental: Cells (10^6) were plated 24-48 hours prior to transfection in 10 cm plates. All cells were transfected with 2 μg of a plasmid expressing CD20 as a transfection marker. Transfection consisted of 1 μg of human p53Pro72 or p53Arg72, 10 μg of ASPP1 or ASPP2, 4 μg of iASPP and 8 μg of pSuper plasmid containing RNAi of iASPP as indicated. 36 hours after the transfection, both attached and floating cells were harvested and analysed as described.

Molecule	co-immunoprecipitation of p53Pro72 compared with p53Arg72 (p53Pro72 and p53Arg72)	transactivation function of p53Arg72 (p53Arg72)	transcriptional activity of p53Pro72 on Bax promoter (p53Pro72 [1])	apoptotic function of p53Pro72 (p53Pro72 [2]; H1299 cells)	apoptotic function of p53Pro72 (p53Pro72 [2]; Saos-2 cells)	transactivation function of p53Pro72 (p53Pro72 [1]; promoter not stated in text (FIG. 2C))
ASPP1: human ASPP1 protein (SEQ ID NO: 7), V5-tagged, expressed from CMV-driven plasmid; stimulates apoptotic function of p53 (protein, listed as Homo sapiens, V5 tag, stimulates apoptotic function of p53) MMPMILTVFLSNNEQILTEVPITPETTCRDVVEFCKEPGEGSCHLAEVWRGNERPIPFDHMMYEHLQIWGPRREEVKFFLRHEDSPTENSEQGGRQTQEQRTQRNVINVPGDKRTEYGVGNPRVELTLSELQDMAARQQQQIENQQQMLVAKEQRLHFLKQQERRQQQSISENEKLQKLKERVEAQENKLKKIRAMRGQVDYSKIMNGNLSAEIERFSAMFQEKKQEVQTAILRVDQLSQQLEDLKKGKLNGFQSYNGKLTGPAAVELKRLYQELQIRNQLNQEQNSKLQQQKELLNKRNMEVAMMDKRISELRERLYGKKIQLNRVNGTSSPQSPLSTSGRVAAVGPYIQVPSAGSFPVLGDPIKPQSLSIASNAAHGRSKSANDGNWPTLKQNSSSSVKPVQVAGADWKDPSVEGSVKQGTVSSQPVPFSALGPTEKPGIEIGKVPPPIPGVGKQLPPSYGTYPSPTPLGPGSTSSLERRKEGSLPRPSAGLPSRQRPTLLPATGSTPQPGSSQQIQQRISVPPSPTYPPAGPPAFPAGDSKPELPLTVAIRPFLADKGSRPQSPRKGPQTVNSSSIYSMYLQQATPPKNYQPAAHSALNKSVKAVYGKPVLPSGSTSPSPLPFLHGSLSTGTPQPQPPSESTEKEPEQDGPAAPADGSTVESLPRPLSPTKLTPIVHSPLRYQSDADLEALRRKLANAPRPLKKRSSITEPEGPGGPNIQKLLYQRFNTLAGGMEGTPFYQPSPSQDFMGTLADVDNGNTNANGNLEELPPAQPTAPLPAEPAPSSDANDNELPSPEPEELICPQTTHQTAEPAEDNNNNVATVPTTEQIPSPVAEAPSPGEEQVPPAPLPPASHPPATSTNKRTNLKKPNSERTGHGLRVRFNPLALLLDASLEGEFDLVQRIIYEVEDPSKPNDEGITPLHNAVCAGHHHIVKFLLDFGVNVNAADSDGWTPLHCAASCNSVHLCKQLVESGAAIFASTISDIETAADKCEEMEEGYIQCSQFLYGVQEKLGVMNKGVAYALWDYEAQNSDELSFHEGDALTILRRKDESETEWWWARLGDREGYVPKNLLGLYPRIKPRQRTLA	to a lesser extent	very little effect	significantly enhanced	enhanced	selectively enhance	
ASPP2: human ASPP2 protein (SEQ ID NO: 8), expressed from CMV-driven plasmid; stimulates apoptotic function of p53 (protein, listed as Homo sapiens) MMPMFLTVYLSNNEQHFTEVPVTPETICRDVVDLCKEPGESDCHLAEVWCGSERPVADNERMFDVLQRFGSQRNEVRFFLRHERPPGRDIVSGPRSQDPSLKRNGVKVPGEYRRKENGVNSPRMDLTLAELQEMASRQQQQIEAQQQLLATKEQRLKFLKQQDQRQQQQVAEQEKLKRLKEIAENQEAKLKKVRALKGHVEQKRLSNGKLVEEIEQMNNLFQQKQRELVLAVSKVEELTRQLEMLKNGRIDSHHDNQSAVAELDRLYKELQLRNKLNQEQNAKLQQQRECLNKRNSEVAVMDKRVNELRDRLWKKKAALQQKENLPVSSDGNLPQQAASAPSRVAAVGPYIQSSTMPRMPSRPELLVKPALPDGSLVIQASEGPMKIQTLPNMRSGAASQTKGSKIHPVGPDWSPSNADLFPSQGSASVPQSTGNALDQVDDGEVPLREKEKKVRPFSMFDAVDQSNAPPSFGTLRKNQSSEDILRDAQVANKNVAKVPPPVPTKPKQINLPYFGQTNQPPSDIKPDGSSQQLSTVVPSMGTKPKPAGQQPRVLLSPSIPSVGQDQTLSPGSKQESPPAAAVRPFTPQPSKDTLLPPFRKPQTVAASSIYSMYTQQQAPGKNFQQAVQSALTKTHTRGPHFSSVYGKPVIAAAQNQQQHPENIYSNSQGKPGSPEPETEPVSSVQENHENERIPRPLSPTKLLPFLSNPYRNQSDADLEALRKKLSNAPRPLKKRSSITEPEGPNGPNIQKLLYQRTTIAAMETISVPSYPSKSASVTASSESPVEIQNPYLHVEPEKEVVSLVPESLSPEDVGNASTENSDMPAPSPGLDYEPEGVPDNSPNLQNNPEEPNPEAPHVLDVYLEEYPPYPPPPYPSGEPEGPGEDSVSMRPPEITGQVSLPPGKRTNLRKTGSERIAHGMRVKFNPLALLLDSSLEGEFDLVQRIIYEVDDPSLPNDEGITALHNAVCAGHTEIVKFLVQFGVNVNAADSDGWTPLHCAASCNNVQVCKFLVESGAAVFAMTYSDMQTAADKCEEMEEGYTQCSQFLYGVQEKMGIMNKGVIYALWDYEPQNDDELPMKEGDCMTIIHREDEDEIEWWWARLNDKEGYVPRNLLGLYPRIKPRQRSLA	Selective binding	very little effect	significantly enhanced	enhanced	selectively enhance	
iASPP: human iASPP protein (SEQ ID NO: 4), expressed from plasmid; inhibits apoptotic function of p53 (protein, listed as Homo sapiens) MWMKDPVARPLSPTRLQPALPPEAQSVPELEEVARVLAEIPRPLKRRGSMEQAPAVALPPTHKKQYQQIISRLFHRHGGPGPGGRSQSCPPSLRDLRPGQGPLLLPHQLPFHRPAPSQSSPPEQPQSMEMRSVLRKAGSPRKARRARLNPLVLLLDAALTGELEVVQQAVKEMNDPSQPNEEGITALHNAICGANYSIVDFLITAGANVNSPDSHGWTPLHCAASCNDTVICMALVQHGAAIFATTLSDGATAFEKCDPYREGYADCATYLADVEQSMGLMNSGAVYALWDYSAEFGDELSFREGESVTVLRRDGPEETDWWWAALHGQEGYVPRNYFGLFPRVKPQRSK	clearly larger				selectively inhibited	selectively inhibited
